Measured values: article PMC7617879

Target: catalytic domain of MMP-14 (MMP-14CAT) (human)
Experiment: enzyme inhibition assay

B1: N-TIMP2-S31PrK, P16035 27-153 (domain or fragment)
chain: CSCSPVHPQQAFCNADVVIRAKAVSEKEVDKGNDIYGNPIKRIQYEIKQIKMFKGPEKDIEFIYTAPSSAVCGVSLDVGGKKEYLIAGKAEGDGKMHITLCDFIVPWDTLSTTQKKSLNHRYQMGCE
modifications: here or on the partner: propargyl lysine (PrK) at position 31
**Q.** Which Ki does the source give for B1 here?
**A.** 1.57 nM
